The supplement of paper PMC10567573

B1: FAM98B (parent)
chain: QLDKNSEVYQEVQAMFDTLGIPKS

Variants of: B1
Test: protein stability index of a GFP-peptide fusion (GPS, HEK-293T) (PSI 1-6); higher = more stable
Settings: c terminus: a fixed tail appended
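Further: lentivirally expressed fusions sorted by FACS into six bins by GFP to DsRed ratio, PSI derived from sequencing read proportions per bin multiplied by bin number.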

Protein stability index: each site, then its substitutions
P22: N 3.38; C 3.11; I 2.78; S 4.04; Q 2.62; H 2.87; K 3.38; M 3.37; L 2.03; G 2.53; D 4.05; E 4.15; W 2.98; V 3.16; R 4.78; T 3.48; A 3.48; Y 2.54; F 2.12
D17: N 3.73; A 2.92; M 2.5; P 3.49; S 3.14; C 2.64; W 1.57; I 1.83; E 3.42; V 2.38; F 3.27; T 3.12; Y 2.02; G 3.08; K 2.77; R 2.71; Q 2.86; H 2.43; L 2.23
K23: G 3.17; T 3.24; E 4.21; P 3.47; C 3.06; Q 3.41; I 2.15; L 2.46; A 3.26; Y 2.71; F 2.59; D 3.82; H 3.33; M 3.38; S 3.24; N 3.54; R 3.38; V 3.4; W 2.3
M15: E 4.28; S 3.22; Q 3.56; V 2.91; W 3.55; K 3.32; T 3.25; F 3.5; C 2.73; I 3.24; D 3.68; G 3.69; N 3.1; P 3.27; H 3.08; R 3.34; Y 2.55; L 2.94; A 2.88
I21: T 3.69; D 3.8; W 3.6; L 4; H 3.4; F 3.3; Y 3; R 2.76; P 3.6; E 4.21; A 3.72; V 3.51; S 3.34; C 3.53; M 3.27; Q 3.64; N 3.41; K 3.58; G 3.69
Q13: L 3.29; P 3.27; A 3.58; Y 2.36; M 2.73; T 3.86; G 3.09; I 3.19; N 2.56; E 3.34; S 3.24; R 2.59; F 2.53; W 2.24; H 3.03; V 3.15; D 3.82; C 2.88; K 2.55
V12: Q 3.56; D 4.19; M 3.29; T 3.52; P 3.34; H 3.42; R 2.8; N 3.53; S 2.77; G 4; F 3.48; A 3; Y 2.56; I 3.04; E 3.5; L 3.1; K 3.22; C 3.36; W 3.85
G20: N 3.97; W 3; C 2.63; K 3.62; M 2.5; V 2.86; Y 3.02; H 2.55; S 3.75; P 3.01; A 3.04; I 3.21; Q 2.98; L 3.2; F 3.04; E 3.77; T 3.15; D 3.74; R 2.44
F16: I 2.79; T 3.78; K 4.07; E 4.36; Q 4.11; V 3.94; W 2.1; S 3.42; H 2.58; C 3.38; L 3.12; M 3.3; Y 3.57; G 3.78; R 2.92; N 3.77; A 3.82; P 4.42
E11: S 2.62; Y 2.7; R 3.38; W 1.27; V 2.56; Q 2.3; T 3.13
T18: W 2.02; E 3.57; C 2.59; V 2.57; N 3.13; K 2.25; Q 3.24; P 3.38; G 3.25; I 2.79; M 2.78; L 2.97; A 3.34; R 3.33; H 3.07; Y 2.67; D 3.87; S 2.85; F 3.52
A14: I 3.22; Y 3.22; V 2.77; T 3.34; N 4.67; D 3.82; G 2.58; W 2.63; K 3.03; F 2.64; S 3.37; H 3.14; C 3.04; E 3.79; R 2.55; L 2.83; M 2.89; P 3.81; Q 3.61
L19: A 3.64; Y 3.6; I 3.06; W 2.45; H 3.71; T 3.59; V 3.56; R 3.7; G 3.49; E 3.58; Q 3.76; C 3.69; N 3.38; S 3.46; P 3.17; D 2.85; F 2.85; K 3.32; M 3.15
S24: N 3.56; D 4.28; M 2.69; P 2.79; I 2.67; A 2.88; T 2.48; Q 3.25; W 2.99; E 3.47; Y 2.36; L 2.46; V 2.61; F 3; G 3.61; K 2.96; C 2.44; R 2.5; H 2.99
